Laboratory results published in PMC5352143.
Values joined by “and” are separate entries in the source; they are usually repeats but may differ in a detail not shown here. Equal values may be shown once. Read-outs that look alike come from different tables or passages of the source.

Columns and labels:
[1] = target: transferrin (Homo sapiens) (UniProt P02787); settings: cited from earlier work
[2] = target: MBP-LbpB (lactoferrin binding protein B, N. meningitidis MC58, without amino acids 1-15) (Neisseria meningitidis strain MC58); assay: cross-linking; XL-MS: LbpB (MBP fusion or TEV-cleaved) and hLf equimolar in 50 mM Tris-HCl, 50 mM NaCl, pH 7.4, 4 h RT, DSS 30 min, bands cut from SDS-PAGE, LC-MS/MS
[3] = target: LbpB (N. meningitidis MC58, without amino acids 1-15) after TEV cleavage of MBP-LbpB (Neisseria meningitidis strain MC58); assay: as above
[4] = target: MBP-LbpB (lactoferrin binding protein B, N. meningitidis MC58, without amino acids 1-15) (Neisseria meningitidis strain MC58); assay: as above; remark: listed apart in the source
[5] = target: intact LbpB with N-terminal biotin acceptor peptide, fused to MBP (BLI construct) (Neisseria meningitidis strain MC58); assay: BLI; Octet RED 96; biotinylated MBP-LbpB constructs loaded from crude E. coli extracts on streptavidin sensors; holo-hLf 10-800 nM in 1 X PBS pH 7.4, 0.002% Tween-20, 0.1 mg/mL BSA; steady-state fit, apparent KD
[6] = target: LbpB with the anionic loops removed (LbpB-lgsm), N-terminal biotin acceptor peptide, fused to MBP (BLI construct) (Neisseria meningitidis strain MC58); assay: as above
[7] = target: LbpB N-terminal lobe with N-terminal biotin acceptor peptide, fused to MBP (BLI construct) (Neisseria meningitidis strain MC58); assay: as above

transferrin (Homo sapiens), sequence (P02787 20-698): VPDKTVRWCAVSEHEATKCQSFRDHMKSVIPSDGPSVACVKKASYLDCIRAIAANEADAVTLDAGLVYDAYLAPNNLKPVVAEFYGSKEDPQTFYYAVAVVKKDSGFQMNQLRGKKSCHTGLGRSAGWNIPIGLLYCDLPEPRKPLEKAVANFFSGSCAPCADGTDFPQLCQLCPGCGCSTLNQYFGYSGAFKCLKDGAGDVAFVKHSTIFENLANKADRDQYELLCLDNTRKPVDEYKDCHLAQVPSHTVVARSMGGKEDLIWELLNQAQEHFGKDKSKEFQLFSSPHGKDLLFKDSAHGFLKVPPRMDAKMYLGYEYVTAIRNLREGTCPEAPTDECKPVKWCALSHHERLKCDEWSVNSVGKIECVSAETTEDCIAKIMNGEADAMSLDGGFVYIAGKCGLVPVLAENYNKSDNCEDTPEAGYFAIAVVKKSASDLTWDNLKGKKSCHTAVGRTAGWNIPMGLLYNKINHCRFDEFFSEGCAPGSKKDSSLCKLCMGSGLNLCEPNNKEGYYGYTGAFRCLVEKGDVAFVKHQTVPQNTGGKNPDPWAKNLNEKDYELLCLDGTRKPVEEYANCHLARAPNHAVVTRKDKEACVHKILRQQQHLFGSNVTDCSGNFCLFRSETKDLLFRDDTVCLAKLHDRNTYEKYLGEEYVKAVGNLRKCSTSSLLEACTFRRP

## TbpB (from UniProt Q09057)
[1]
  Kd: 50 nM

## holo human lactoferrin (iron-loaded hLf) (ligand)
[2]
  stoichiometry N: 2 hLf:LbpB
[3]
  stoichiometry N: 1 hLf:LbpB and 2 hLf:LbpB
[4]
  stoichiometry N: 1 hLf:LbpB
[5]
  Kd: 72.8 nM
[6]
  Kd: 140 nM
[7]
  Kd: 126 nM
